The target of the test is T1, sigma-factor σ^A from Bacillus subtilis (Bacillus subtilis W168, UniProt P06224 1-371).
T1 construct: RNA polymerase sigma factor A (house-keeping sigma factor), Bacillus subtilis W168; gene amplified from the chromosome and cloned into pBAD18; also called house-keeping sigma-factor σ^A; σ^A-subunit of RNAP; source: E. coli, pBAD18, purified on Ni-NTA columns
Put plainly: native gel or EMSA; super-shift of ComA-bound biotinylated rapA promoter DNA (ComA at full occupancy) on adding α or σ^A; 10 mM HEPES pH 7.6, 2 mM MgCl2, 0.1 mM EDTA, 200 mM KCl, 5 mM DTT, 10% glycerol; 20 min at room temperature; native 8% polyacrylamide gel, 0.5x TBE. The conditions noted are these: both partners purified. On the technique in general: In EMSA bound probe runs differently from free probe, usually more slowly.

T1 sequence (P06224 whole entry): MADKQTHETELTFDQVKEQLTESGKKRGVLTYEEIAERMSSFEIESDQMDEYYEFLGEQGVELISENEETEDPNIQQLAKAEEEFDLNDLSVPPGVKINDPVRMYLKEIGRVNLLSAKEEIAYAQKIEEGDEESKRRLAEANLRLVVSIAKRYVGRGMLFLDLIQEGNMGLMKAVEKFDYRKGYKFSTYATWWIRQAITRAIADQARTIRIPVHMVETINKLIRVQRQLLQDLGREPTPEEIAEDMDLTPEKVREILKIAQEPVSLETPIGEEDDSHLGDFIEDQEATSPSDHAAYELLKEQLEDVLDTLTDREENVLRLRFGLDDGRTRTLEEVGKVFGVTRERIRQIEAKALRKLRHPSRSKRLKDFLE

B1: ComA from Bacillus subtilis (His6-tagged ComA protein) (natural protein, Bacillus subtilis W168, UniProt P14204 1-214, looked up)
chain: MKKILVIDDHPAVMEGTKTILETDSNLSVDCLSPEPSEQFIKQHDFSSYDLILMDLNLGGEVNGMELSKQILQENPHCKIIVYTGYEVEDYFEEAIRAGLHGAISKTESKEKITQYIYHVLNGEILVDFAYFKQLMTQQKTKPAPSSQKEQDVLTPRECLILQEVEKGFTNQEIADALHLSKRSIEYSLTSIFNKLNVGSRTEAVLIAKSDGVL
notes: Transcription factor ComA, Bacillus subtilis W168; gene amplified from the chromosome and cloned into pBAD18; At full occupancy the rapA promoter probably carries more than one dimer; also called recombinant His6-tagged ComA; source: E. coli, pBAD18, purified on Ni-NTA columns; not shown: His6, N-terminal, kept
For the molecule B1, the binding result is on record as “binds”.

The values above are taken from PMC4797271, “The quorum-sensing regulator ComA from Bacillus subtilis activates transcription using topologically distinct DNA motifs” (Nucleic Acids Research, 2015).
